B1: BsAb25 (bispecific antibody)
heavy: not shown
light: EIVLTQSPDFQSVTPKEKVTITCRASQSIGSSLHWYQQKPDQSPKLLIKYASQSFSGVPSRFSGSGSGTDFTLTINSLEAEDAAAYYCHQSSSLPFTFGPGTKVDIKRTVAAPSVFIFPPSDEQLKSGTASVVCLLNNFYPREAKVQWKVDNALQSGNSQESVTEQDSKDSTYSLSSTLTLSKADYEKHKVYACEVTHQGLSSPVTKSFNRGEC
notes: Canakinumab IgG1 heavy chain-(G4S)4-Atezolizumab scFv (VH G44C-(G4S)4-VL Q100C); also called Construct BsAb25
B2: BsAb29 (bispecific antibody)
heavy: not shown
light: EIVLTQSPDFQSVTPKEKVTITCRASQSIGSSLHWYQQKPDQSPKLLIKYASQSFSGVPSRFSGSGSGTDFTLTINSLEAEDAAAYYCHQSSSLPFTFGPGTKVDIKRTVAAPSVFIFPPSDEQLKSGTASVVCLLNNFYPREAKVQWKVDNALQSGNSQESVTEQDSKDSTYSLSSTLTLSKADYEKHKVYACEVTHQGLSSPVTKSFNRGEC
notes: also called Construct BsAb29
B3: BsAb17 (bispecific antibody)
heavy: not shown
light: not shown
chain 1: not shown
chain 2: EIVLTQSPDFQSVTPKEKVTITCRASQSIGSSLHWYQQKPDQSPKLLIKYASQSFSGVPSRFSGSGSGTDFTLTINSLEAEDAAAYYCHQSSSLPFTFGPGTKVDIKSSASTKGPSVFPLAPSSKSTSGGTAALGCLVKDYFPEPVTVSWNSGALTSGVHTFPAVLQSSGLYSLSSVVTVPSSSLGTQTYICNVNHKPSNTKVDKKVEPKSC
notes: Atezolizumab heavy (Knob) and light chain; Canakinumab VH-CL-Fc (hole); also called Construct BsAb17
B4: BsAb18 (bispecific antibody)
heavy: not shown
light: not shown
chain 1: not shown
chain 2: QVQLVESGGGVVQPGRSLRLSCAASGFTFSVYGMNWVRQAPGKGLEWVAIIWYDGDNQYYADSVKGRFTISRDNSKNTLYLQMNGLRAEDTAVYYCARDLRTGPFDYWGQGTLVTVSSASVAAPSVFIFPPSDEQLKSGTASVVCLLNNFYPREAKVQWKVDNALQSGNSQESVTEQDSKDSTYSLSSTLTLSKADYEKHKVYACEVTHQGLSSPVTKSFNRGEC
notes: Atezolizumab heavy (Knob) and light chain; Canakinumab VL-IgG1 constant region (hole); also called Construct BsAb18
B5: BsAb22 (bispecific antibody)
heavy: not shown
light: not shown
chain 1: not shown
chain 2: EIVLTQSPDFQSVTPKEKVTITCRASQSIGSSLHWYQQKPDQSPKLLIKYASQSFSGVPSRFSGSGSGTDFTLTINSLEAEDAAAYYCHQSSSLPFTFGPGTKVDIKSSASTKGPSVFPLAPSSKSTSGGTAALGCLVKDYFPEPVTVSWNSGALTSGVHTFPAVLQSSGLYSLSSVVTVPSSSLGTQTYICNVNHKPSNTKVDKRVEPKSC
notes: Atezolizumab heavy chain (Fc with F405L) and light chain; Canakinumab VH-CL-Fc (K409R); also called Construct BsAb22
B6: Canakinumab (antibody, human IgG1, kappa, V domains shown)
VH: QVQLVESGGGVVQPGRSLRLSCAASGFTFSVYGMNWVRQAPGKGLEWVAIIWYDGDNQYYADSVKGRFTISRDNSKNTLYLQMNGLRAEDTAVYYCARDLRTGPFDYWGQGTLVTVSS
VL: EIVLTQSPDFQSVTPKEKVTITCRASQSIGSSLHWYQQKPDQSPKLLIKYASQSFSGVPSRFSGSGSGTDFTLTINSLEAEDAAAYYCHQSSSLPFTFGPGTKVDIKR
notes: also called positive control Canakinumab

What was measured:
[1] = target: T1, huIL-1β-His (human, UniProt P01584 117-269); assay: ELISA, plate coated with huIL-1β-His, anti-human IgG Fc-HRP
[2] = target: T2, full-length human PD-L1 on huPD-L1-CHO-K cells (human, UniProt Q9NZQ7 19-290); assay: flow cytometry on huPD-L1-CHO-K cells, PE anti-human IgG Fc
T2 construct: also called huPD-L1-overexpressing-CHO-K cells; CD3L-PD-L1-CHO

[3] = target: T3, huPD-L1-His (human, UniProt Q9NZQ7 19-238); assay: ELISA, plate coated with huPD-L1-His, anti-human IgG Fc-HRP
T3 construct: also called human recombinant protein huPD-L1-His; antigen PD-L1

[4] = target: T3, huPD-L1-His; assay: bridging ELISA: coated huIL-1β-Fc, antibody, then huPD-L1-His, anti-His-HRP
[5] = target: T4, huIL-1β-Fc (human); assay: as above
T4 construct: also called huIL-1β-Fe

[6] = target: T1, huIL-1β-His; assay: bridging ELISA: coated huPD-L1-Fc, antibody, then huIL-1β-His, anti-His-HRP
[7] = target: huPD-L1-Fc (human); assay: as above
[8] = target: T1, huIL-1β-His; assay: ELISA, plate coated with huIL-1β-His, anti-human IgG Fc-HRP; positive control

Row | Binder | binding result [1] | binding result [2] | other results
1 | B1 | binds | binds | binding result [3]: binds
2 | B2 |  | binds | binding result [4]: binds; binding result [5]: binds; binding result [6]: binds; binding result [7]: binds
3 | B3 | binds |  | 
4 | B4 | binds |  | 
5 | B5 | binds |  | 
6 | B6 |  |  | binding result [8]: binds

— patent EP4737484A1 (Phil Rivers Technology Co., Ltd, dated 2026)
